Broadly, the Km is the substrate concentration at which the rate is half of its maximum. For orientation: kcat means the number of substrate molecules converted per active site and unit of time at saturation.

Substrate in data set [1]: Nc1ncnc2c1ncn2[C@@H]1O[C@H](COP(=O)(O)OP(=O)(O)OP(=O)(O)O)[C@@H](O)[C@H]1O
The data set can be described thus: NADH-coupled ATPase assay (pyruvate kinase / lactate dehydrogenase). Type of data set: biochemical, Thermochaetoides thermophila. Particulars: no RNA, ctPfa1-GP in five-fold excess, pH 7.5, 150 mM KCl, 3 mM MgCl2, 25 °C. From the text:
NADH-coupled ATPase assay (pyruvate kinase / lactate dehydrogenase) on ctPrp43 + ctPfa1-GP

Substrate in data set [2]: Nc1ncnc2c1ncn2[C@@H]1O[C@H](COP(=O)(O)OP(=O)(O)OP(=O)(O)O)[C@@H](O)[C@H]1O
The description is as above. Format: biochemical, Thermochaetoides thermophila. As to conditions: no RNA, no G-patch, pH 7.5, 150 mM KCl, 3 mM MgCl2, 25 °C. The text has this:
NADH-coupled ATPase assay (pyruvate kinase / lactate dehydrogenase) on ctPrp43

The mark [3] stands for this setting: ctPrp43-IDSB, mainly oxidized (internal disulfide bond).

Positions count from the first letter of the chain named. In names and notes the source's numbering stands.

B1: ctPrp43 + ctPfa1-GP (Thermochaetoides thermophila DSM 1495; F181C/N623C) (protein)
chain: MADITKGTKRLSGEAEGSQDSKRVKTNGDKMDAKNPYLAHLEEKPEADFESLLDKLERRNTTAKQAEAVEDSDINPWTGQRHSERYFKILKARRKLPVNKQRQEFLDLYHNNQILVFVGETGSGKTTQIPQYVLYDELPHQTGKLIACTQPRRVAAMSVAQRVADELDVKLGEEVGYSIRCENKTSSKTLLKYMTDGQLLREAMHDRDMSRYSCIILDEAHERTLATDILMALLKQLSERRKDLKIIVMSATLDAQKFQSYFFNAPLLAVPGRTHPVEIFYTPEAERDYVEAAIRTVLQIHACEPEGDILLFLTGEEEIEDACRRISLEVDEMIRESDAGPMSVYPLYGTLPPHQQQRIFEKAPQPFRPGGRPGRKCIVATNIAETSLTIDGIVYVVDPGFSKQKIYNPRTRVESLLVSPISKASAQQRAGRAGRTRPGKCFRLYTEEAFKKELIEQTYPEILRSNLSNTVLELKKLGVEDLVHFDLMDPPAPETMMRALEELNYLACLDDDGELTPLGNLASEFPLDPALAVMLISSPEFYCSNEILSITSLLSVPQIWVRPANARKRADEMKAQFAHPDGDHLTLLNAYHAYKGAEARGEDMKKWCHEHFLSYRHLSSADCVRAQLKKIMETHGIELVSTPFHDKNYYTNIRRALLAGFFMQVAMRESSNSKVYKTVKDEQLVLIHPSTTVTTPYEWVVYNEFVLTTKQYVRTVTNIRPEWLLEIAPVYYDLSTFQKGEIKNALTRVAEKIRRQQAMKASKA
notes: full-length Prp43 (GST tag removed) plus G-patch fragment ctPfa1(662-742) in five-fold excess, both recombinant, tags cut; with Uncharacterized protein (G-patch protein Pfa1)
For the protein B1, in data set [1] (setting [3]), the Km was 29.04 ± 1.35 µM and the kcat was 3.32 s⁻¹.

B2: ctPrp43 + ctPfa1-GP (Thermochaetoides thermophila DSM 1495; T350G/Y348G) (protein)
chain: B1 chain with C181F, Y348G, T350G, C623N
notes: as for B1
With B2, in data set [1] (ctPrp43-HL), the Km is listed as 14.38 ± 0.89 µM and the kcat came to 1.44 s⁻¹.

B3: ctPrp43 + ctPfa1-GP (Thermochaetoides thermophila DSM 1495; F181G/R180G/T350G/Y348G) (protein)
chain: B1 chain with R180G, C181G, Y348G, T350G, C623N
notes: as for B1
With B3, in data set [1] (ctPrp43-HT&HL), the Km worked out at 25.17 ± 1.37 µM and the kcat worked out at 1.89 s⁻¹.

B4: ctPrp43 (Thermochaetoides thermophila DSM 1495; T350G/Y348G) (protein)
chain: B1 chain with C181F, Y348G, T350G, C623N
notes: full length (residues 1-764), recombinant, GST tag removed, expressed as previously described
For the protein B4, in data set [2] (ctPrp43-HL), the Km came to 14.31 ± 0.71 µM and the kcat is 0.103 s⁻¹.

B5: ctPrp43 (Thermochaetoides thermophila DSM 1495; F181C/N623C) (protein)
chain: B1 chain
notes: as for B4
With B5, in data set [2] (setting [3]), the Km turned out to be 16.23 ± 2.38 µM and the kcat worked out at 0.084 s⁻¹.

B6: ctPrp43 (Thermochaetoides thermophila DSM 1495; F181G/R180G/T350G/Y348G) (protein)
chain: B1 chain with R180G, C181G, Y348G, T350G, C623N
notes: as for B4
B6: in data set [2] (ctPrp43-HT&HL), the Km was 16.72 ± 1.49 µM and the kcat worked out at 0.127 s⁻¹.

For the origin of these results see publication PMC5262380, “Structural insights into the mechanism of the DEAH-box RNA helicase Prp43” (eLife, 2017).
